Measurements reported in US20120316071A1 (published 2012).

T1: rHuman Erythropoietin R/Fc Chimera, CF (R&D Systems Cat#963-ER) (human, UniProt P19235 25-250)
T1 construct: Bought from R&D Systems; also called EPO R; EPO R/Fc; Fc part of the bought chimera not given
T1 sequence (looked up): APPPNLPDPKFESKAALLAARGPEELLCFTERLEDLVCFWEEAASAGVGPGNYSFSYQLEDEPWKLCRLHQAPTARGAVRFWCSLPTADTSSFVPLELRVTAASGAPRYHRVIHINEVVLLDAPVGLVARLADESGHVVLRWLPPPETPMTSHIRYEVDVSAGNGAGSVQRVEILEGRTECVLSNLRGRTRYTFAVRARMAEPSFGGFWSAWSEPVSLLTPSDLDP

T2: rHuman Erythropoietin R/Fc Chimera (human, UniProt P19235 25-250)
T2 construct: also called EPO R; EPO R/Fc
T2 sequence (looked up): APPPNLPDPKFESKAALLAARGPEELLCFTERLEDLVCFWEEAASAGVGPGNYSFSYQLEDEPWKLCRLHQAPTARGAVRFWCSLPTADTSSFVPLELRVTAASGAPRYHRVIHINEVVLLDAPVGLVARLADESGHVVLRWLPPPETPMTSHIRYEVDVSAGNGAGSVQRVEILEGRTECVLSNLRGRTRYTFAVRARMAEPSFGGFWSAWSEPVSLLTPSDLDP


Columns and labels:
[1] = molecular target: T3, rHuman EGF R/Fc Chimera, CF (R&D Systems Cat#344-ER) (human, UniProt P00533 25-645); test: ECL multispot (MSD) binding assay; antigen spotted on plate, Fab in solution, Ru-labelled anti-kappa detection;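 also: purified Fab in 1% BSA TBST incubated 1 h at 20 °C with shaking, signal compared with each well's blank, signal/blank ratio of 4 or above counted as binder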
T3 construct: Bought from R&D Systems; also called epidermal growth factor receptor; Fc part of the bought chimera not given

[2] = molecular target: T4, rHuman HGF R/c-MET/Fc Chimera, CF (R&D Systems Cat#358-MT/CF) (human, UniProt P08581 25-932); test: as above
T4 construct: Bought from R&D Systems; also called HGF R/Fc; hepatocyte growth factor receptor; Fc part of the bought chimera not given
T4 sequence (P08581 25-932, change not shown): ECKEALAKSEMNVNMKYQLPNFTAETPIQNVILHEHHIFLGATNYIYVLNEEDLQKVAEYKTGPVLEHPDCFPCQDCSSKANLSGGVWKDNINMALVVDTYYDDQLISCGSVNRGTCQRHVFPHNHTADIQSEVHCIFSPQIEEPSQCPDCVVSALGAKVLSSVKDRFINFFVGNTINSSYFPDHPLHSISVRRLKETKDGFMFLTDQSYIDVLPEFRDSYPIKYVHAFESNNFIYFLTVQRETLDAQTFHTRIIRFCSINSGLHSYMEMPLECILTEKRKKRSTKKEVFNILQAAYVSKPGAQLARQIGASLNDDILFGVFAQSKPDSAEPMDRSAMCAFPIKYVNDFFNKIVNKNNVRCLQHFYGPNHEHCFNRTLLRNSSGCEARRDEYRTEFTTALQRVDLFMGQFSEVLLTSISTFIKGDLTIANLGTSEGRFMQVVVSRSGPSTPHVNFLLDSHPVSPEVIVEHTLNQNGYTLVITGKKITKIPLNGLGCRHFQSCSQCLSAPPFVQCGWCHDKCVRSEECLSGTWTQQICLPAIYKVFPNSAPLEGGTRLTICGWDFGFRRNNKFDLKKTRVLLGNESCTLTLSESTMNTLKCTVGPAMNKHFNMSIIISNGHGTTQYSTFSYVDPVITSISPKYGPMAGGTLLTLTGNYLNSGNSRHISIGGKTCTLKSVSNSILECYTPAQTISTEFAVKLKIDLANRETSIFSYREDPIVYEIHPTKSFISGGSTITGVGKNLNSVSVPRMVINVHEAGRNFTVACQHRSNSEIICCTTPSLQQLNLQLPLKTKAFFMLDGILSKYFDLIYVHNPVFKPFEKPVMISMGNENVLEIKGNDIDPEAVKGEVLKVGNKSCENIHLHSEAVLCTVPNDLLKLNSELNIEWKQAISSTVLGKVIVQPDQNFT

[3] = molecular target: T5, rHuman IGF-1 sR, CF (R&D Systems Cat#391-GR) (human, UniProt P08069 31-932); test: as above
T5 construct: Bought from R&D Systems as a soluble receptor; also called insulin-like growth factor-1 soluble receptor

[4] = molecular target: T6, Recombinant Human DLL4 (R&D Systems Cat#1506-D4/CF) (human, UniProt Q9NR61 27-524); test: as above
T6 construct: Bought from R&D Systems; also called delta-like protein 4; rHuman DLL4

[5] = molecular target: T1, rHuman Erythropoietin R/Fc Chimera, CF …; test: as above
[6] = molecular target: T7, rHuman P-Cadherin/Fc Chimera, CF (R&D Systems Cat#861-PC) (human, UniProt P22223 108-654); test: as above
T7 construct: Bought from R&D Systems; Fc part of the bought chimera not given

[7] = molecular target: T8, rHuman Notch-1/Fc Chimera, CF (R&D Systems Cat#3647-TK) (human, UniProt P46531 19-526); test: as above
T8 construct: Bought from R&D Systems; Fc part of the bought chimera not given

[8] = molecular target: T9, rHuman CD44/Fc Chimera, CF (R&D Systems Cat#3660-CD) (human, UniProt P16070 21-220); test: as above
T9 construct: Bought from R&D Systems; Fc part of the bought chimera not given

[9] = molecular target: T10, rHuman ErbB2/Fc Chimera, CF (R&D Systems Cat#1129-ER) (human, UniProt P04626 23-652); test: as above
T10 construct: Bought from R&D Systems; also called human epidermal growth factor 2 receptor; Fc part of the bought chimera not given

[10] = molecular target: T11, Recombinant Human DLL4 (delta-like protein 4) (human, UniProt Q9NR61 27-524); test: ECL (MSD) multispot binding assay, DLL4 immobilized, Fab in solution
T11 construct: Bought recombinant protein (R&D Systems Cat#1506-D4/CF); also called rHuman DLL4; Delta-like 4

[11] = molecular target: T11, Recombinant Human DLL4 (delta-like …); test: ELISA, DLL4 coated on plate, Fab in solution, absorbance at 450 nm
rHuman ErbB2/Fc Chimera = rHuman ErbB2/Fc Chimera (human, UniProt P04626 23-652); test: ECL multispot (MSD) binding assay; antigen spotted on plate, Fab in solution;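 also: purified Fab bound for 1 h at 20 °C, detected with a TAG-labelled antibody, electrochemiluminescence compared with each well's blank, signal-to-blank ratio of at least 4 scored as hit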
[12] = molecular target: T12, rHuman HGF R/c-MET/Fc Chimera (human, UniProt P08581 25-932); test: as above
T12 construct: also called HGF R/Fc
T12 sequence (P08581 25-932, change not shown): as above

[13] = molecular target: T2, rHuman Erythropoietin R/Fc Chimera; test: as above
rHuman CD44/Fc Chimera = rHuman CD44/Fc Chimera (human, UniProt P16070 21-220); test: as above
[14] = molecular target: T13, rHuman P-Cadherin/Fc Chimera (human, UniProt P22223 108-654); test: as above
T13 construct: Bought from R&D Systems (Cat#861-PC)

rHuman EGF R/Fc Chimera = rHuman EGF R/Fc Chimera (human, UniProt P00533 25-645); test: as above
[15] = molecular target: T14, rHuman Notch-1/Fc Chimera (human, UniProt P46531 19-526); test: as above
T14 construct: Bought from R&D Systems (Cat#3647-TK)

[16] = molecular target: rHuman IGF-1 sR (insulin-like growth factor-1 soluble receptor) (human, UniProt P08069 31-932); test: as above

Binder | ECL signal [1] | ECL signal [2] | ECL signal [3] | ECL signal [4] | ECL signal [5] | ECL signal [6] | ECL signal [7] | ECL signal [8] | ECL signal [9] | ECL Signal/Noise [10] | ELISA (Signal-Noise) [11] | ECL signal (rHuman ErbB2/Fc Chimera) | ECL signal [12] | ECL signal [13] | ECL signal (rHuman CD44/Fc Chimera) | ECL signal [14] | ECL signal (rHuman EGF R/Fc Chimera) | ECL signal [15] | ECL signal [16]
Fab VH1-46_IGHD6-6*01_IGHJ1*01 S102A/S103P/S104F/H111F (H:APFF) & L6_IGKJ1*01 S76N (Fab, V domains shown, Tested as Fab expressed in E. coli; VH was cloned into Plasmid A (CH1 constant region, His6 and Flag tags) and the kappa VL into Plasmid C (kappa CL)) VH: QVQLVQSGAEVKKPGASVKVSCKASGYTFTSYYMHWVRQAPGQGLEWMGIINPSGGSTSYAQKFQGRVTMTRDTSTSTVYMELSSLRSEDTAVYYCAREEYAPFSAEYFQFWGQGTLVTVSS VL: EIVLTQSPATLSLSPGERATLSCRASQSVSSYLAWYQQKPGQAPRLLIYDASNRATGIPARFSGSGSGTDFTLTINSLEPEDFAVYYCQQRSNWPPWTFGQGTKVEIKR | – | – | – | – | – | – | – | – | – | 118 | 0.28 | – | – | – | – | – | – | – | –
Fab VH1-46_IGHD6-6*01_IGHJ1*01 S102A/S103P/S104F/H111F T28A & L6_IGKJ1*01 (Fab, V domains shown, Tested as a Fab made in E. coli; The heavy chain vector (Plasmid A) adds CH1 with His6 and Flag tags; The light chain vector (Plasmid C) adds kappa CL; also called APFF T28A) VH: QVQLVQSGAEVKKPGASVKVSCKASGYAFTSYYMHWVRQAPGQGLEWMGIINPSGGSTSYAQKFQGRVTMTRDTSTSTVYMELSSLRSEDTAVYYCAREEYAPFSAEYFQFWGQGTLVTVSS VL: not shown | 329 | 353 | 377 | 181000 | 477 | 477 | 478 | 497 | 316 | – | – | – | – | – | – | – | – | – | –
Fab VH1-46_IGHD6-6*01_IGHJ1*01 S102A/S103P/S104F/H111F (APFF) & L6_IGKJ1*01 S92V (Fab, V domains shown, Tested as Fab (CH1 with His6/Flag tags from Plasmid A; kappa CL from Plasmid C); also called APFF / S92V) VH: QVQLVQSGAEVKKPGASVKVSCKASGYTFTSYYMHWVRQAPGQGLEWMGIINPSGGSTSYAQKFQGRVTMTRDTSTSTVYMELSSLRSEDTAVYYCAREEYAPFSAEYFQFWGQGTLVTVSS VL: EIVLTQSPATLSLSPGERATLSCRASQSVSSYLAWYQQKPGQAPRLLIYDASNRATGIPARFSGSGSGTDFTLTISSLEPEDFAVYYCQQRVNWPPWTFGQGTKVEIKR | – | – | – | – | – | – | – | – | – | – | – | 246 | 288 | 368 | 331 | 390 | 305 | 347 | 237

Now from value to binder:

ECL signal [1] | ECL signal [2] | ECL signal [3] | ECL signal [4] | ECL signal [5] | ECL signal [6] | ECL signal [7] | ECL signal [8] | ECL signal [9] | ECL Signal/Noise [10] | ELISA (Signal-Noise) [11] | ECL signal (rHuman ErbB2/Fc Chimera) | ECL signal [12] | ECL signal [13] | ECL signal (rHuman CD44/Fc Chimera) | ECL signal [14] | ECL signal (rHuman EGF R/Fc Chimera) | ECL signal [15] | ECL signal [16] | Binder
281 | 248 | 227 | 59500 | 430 | 178 | 334 | 290 | 298 | – | – | – | – | – | – | – | – | – | – | Fab VH1-46_IGHD6-6*01_IGHJ1*01 S102A/S103P/S104F/H111F Y33A & L6_IGKJ1*01 (Fab, V domains shown, Tested as a Fab made in E. coli; The heavy chain vector (Plasmid A) adds CH1 with His6 and Flag tags; The light chain vector (Plasmid C) adds kappa CL; also called APFF Y33A) VH: QVQLVQSGAEVKKPGASVKVSCKASGYTFTSYAMHWVRQAPGQGLEWMGIINPSGGSTSYAQKFQGRVTMTRDTSTSTVYMELSSLRSEDTAVYYCAREEYAPFSAEYFQFWGQGTLVTVSS VL: not shown
– | – | – | – | – | – | – | – | – | – | – | 301 | 346 | 340 | 304 | 328 | 367 | 385 | 271 | Fab VH1-46_IGHD6-6*01_IGHJ1*01 S102A/S103P/S104F/H111F (APFF) & L6_IGKJ1*01 S92M (Fab, V domains shown, Tested as Fab (CH1 with His6/Flag tags from Plasmid A; kappa CL from Plasmid C); also called APFF / S92M) VH: QVQLVQSGAEVKKPGASVKVSCKASGYTFTSYYMHWVRQAPGQGLEWMGIINPSGGSTSYAQKFQGRVTMTRDTSTSTVYMELSSLRSEDTAVYYCAREEYAPFSAEYFQFWGQGTLVTVSS VL: EIVLTQSPATLSLSPGERATLSCRASQSVSSYLAWYQQKPGQAPRLLIYDASNRATGIPARFSGSGSGTDFTLTISSLEPEDFAVYYCQQRMNWPPWTFGQGTKVEIKR
351 | 353 | 343 | 178000 | 479 | 337 | 368 | 396 | 408 | – | – | – | – | – | – | – | – | – | – | Fab VH1-46_IGHD6-6*01_IGHJ1*01 S102A/S103P/S104F/H111F T30A & L6_IGKJ1*01 (Fab, V domains shown, Tested as a Fab made in E. coli; The heavy chain vector (Plasmid A) adds CH1 with His6 and Flag tags; The light chain vector (Plasmid C) adds kappa CL; also called APFF T30A) VH: QVQLVQSGAEVKKPGASVKVSCKASGYTFASYYMHWVRQAPGQGLEWMGIINPSGGSTSYAQKFQGRVTMTRDTSTSTVYMELSSLRSEDTAVYYCAREEYAPFSAEYFQFWGQGTLVTVSS VL: not shown
